# Positions count from the first letter of the chain named.
# T1: hIL6R (human, UniProt P08887 20-357)
# T1 construct: Purified from culture supernatant of a CHO line; whole entry named; also called human interleukin 6 receptor (purified antigen from hIL6R-CHO supernatant)
# T1 sequence: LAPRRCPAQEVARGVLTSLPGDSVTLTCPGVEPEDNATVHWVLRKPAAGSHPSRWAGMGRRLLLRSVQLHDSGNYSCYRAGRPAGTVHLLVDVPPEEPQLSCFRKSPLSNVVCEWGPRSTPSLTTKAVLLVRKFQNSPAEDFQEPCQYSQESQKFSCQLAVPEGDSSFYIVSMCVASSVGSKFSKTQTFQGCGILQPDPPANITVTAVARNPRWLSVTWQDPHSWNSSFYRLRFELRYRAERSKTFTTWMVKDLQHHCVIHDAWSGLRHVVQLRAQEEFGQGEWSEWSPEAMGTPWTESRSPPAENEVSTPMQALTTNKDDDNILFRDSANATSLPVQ
# B1: mPD1F2VH-mF18/mPD1F2VL-mk1 (antibody, mouse IgG1, kappa, V domains shown)
# VH: EVQLVQSGGGVVQPGRSLRLSCAASGFTFSSYWMSWVRQAPGKGLEWVSAISGSGGSTYYADSVKGRFTISRDNSKNTLYLQMNSLRAEDTAVYYCAKENWGSYFDLWGQGTTVTVSS
# VL: DIVMTQSPSTLSASVGDRVTITCRASQGISSWLAWYQQKPGRAPKVLIYKASTLESGVPSRFSGSGSGTDFTLTISSLQPEDFATYYCQQSYSTPWTFGQGTKLEIKR
# notes: Control anti-PD1 antibody; also called mPD1F2VH-mF18/mPD1F2VL-mkl
# B2: dBBK054-P253 (antibody, human IgG1, kappa, V domains shown)
# VH: QVQLVQSGAEVKKPGSSVKVSCKASGGWFSYYMISWVRQAPGQGLEWMGVIVPINGAAQYAQKFQGRVTITADESTSTAYMELSSLRSEDTAVYYCARDRPVWRTPRGAFDIWGQGTLVTVSS
# VL: DIVMTQSPLSLPVTPGEPASISCRSSQSLVDSNMNTFLSWYLQKPGQSPQLLIYEIQHRFYGVPDRFSGSGSGTDFTLKISRVEAEDVGVYYCMQAMGFPRTFGQGTKVEIKR
# B3: dBBK070-P253 (antibody, human IgG1, kappa, V domains shown)
# VH: QVQLVQSGAEVKKPGSSVKVSCKASGGWFSHYSISWVRQAPGQGLEWMGVVWPIRSFATYAQKFQGRVTITADESTSTAYMELSSLRSEDTAVYYCARDNPVTSWPHGAFDIWGQGTLVTVSS
# VL: B2 VL with D31R, S32P, N33F, M34G, Q57S, H58T, M97H, G98Q
# B4: dBBK102-P253 (antibody, human IgG1, kappa, V domains shown)
# VH: QVQLVQSGAEVKKPGSSVKVSCKASGGAFSYYLISWVRQAPGQGLEWMGFVDPIRGGAFYAQKFQGRVTITADESTSTAYMELSSLRSEDTAVYYCARDRPVNAAPRGAFDIWGQGTLVTVSS
# VL: B2 VL with D31W, S32N, N33D, M34R, Q57R, H58K, M97Q, G98D
# B5: 20H4.9-MB110/20H4.9LC-mk0 (antibody, mouse IgG1, kappa)
# heavy: QVQLQQWGAGLLKPSETLSLTCAVYGGSFSGYYWSWIRQSPEKGLEWIGEINHGGYVTYNPSLESRVTISVDTSKNQFSLKLSSVTAADTAVYYCARDYGPGNYDWYFDLWGRGTLVTVSSAKTTPPSVYPLAPGSAAQTNSMVTLGCLVKGYFPEPVTVTWNSGSLSSGVHTFPAVLQSDLYTLSSSVTVPSSTWPSETVTCNVAHPASSTKVDKKIVPRDCGCKPCICTVPEVSDVFIFPPKPKDVLTITLTPKVTCVVVDISKDDPEVQFSWFVDDVEVHTAQTQPREEQFNSTFRSVSELPIMHQDWLNGKEFKCRVNSAAFPAPIEKTISKTKGRPKAPQVYTIPPPKEQMAKDKVSLTCMITDFFPEDITVEWQWNGQPAENYKNTQPIMDTDGSYFVYSKLNVQKSNWEAGNTFTCSVLHEGLHNHHTEKSLSHSPGK
# light: EIVLTQSPATLSLSPGERATLSCRASQSVSSYLAWYQQKPGQAPRLLIYDASNRATGIPARFSGSGSGTDFTLTISSLEPEDFAVYYCQQRSNWPPALTFGGGTKVEIKRADAAPTVSIFPPSSEQLTSGGASVVCFLNNFYPKDINVKWKIDGSERQNGVLNSWTDQDSKDSTYSMSSTLTLTKDEYERHNSYTCEATHKTSTSPIVKSFNRNEC
# notes: also called NS1-MB110
# B6: 20H4.9-mIgG1/20H4.9LC-mk0 (antibody)
# heavy: B5 heavy with D237S
# light: B5 light
# notes: also called NS1-mIgG1
# B7: 20H4.9-MB492/20H4.9LC-mk0 (antibody, mouse IgG1, kappa)
# heavy: B5 heavy with T231E, V232P, P233N, S236E, N322D
# light: B5 light
# notes: also called NS1-MB492
# B8: H0052-G4T1/L1083-lam1 (antibody, human IgG4 S228P, lambda, V domains shown)
# VH: EVQLVESGGDLVKPGGGLRLSCAASGFTFSSYTMNWVRQAPGKGLEWVSSISSRSYHIYYADSVDGRFTISRDNAKNSLYLQMNSLRAEDTAVYYCARYGKLYSLNWVFDYWGQGTLVTVSS
# VL: QSALTQPPSASGSPGQTVTISCTGTSTDVGDYAYVSWYQQHPGKAPKLMIYYVDKKPSGVPDRFSGSKSGNTASLTVSGLQAEDEADYFCSLRSPGPYPLFGGGTKLTVLG
# B9: H0002-G4T1/L1058-lam1 (antibody, human IgG4 S228P, lambda, V domains shown)
# VH: B8 VH with I58A, D65K
# VL: B8 VL with A33N, Y52E, D54V, P95A
# B10: H0041-G4T1/L1088-lam1 (antibody, human IgG4 S228P, lambda, V domains shown)
# VH: B8 VH with R54Q, D65K
# VL: B8 VL with D54S, S58D
# B11: MRAH-G4T1/MRAL-k0 (antibody, human IgG4 S228P, kappa, V domains shown)
# VH: QVQLQESGPGLVRPSQTLSLTCTVSGYSITSDHAWSWVRQPPGRGLEWIGYISYSGITTYNPSLKSRVTMLRDTSKNQFSLRLSSVTAADTAVYYCARSLARTTAMDYWGQGSLVTVSS
# VL: DIQMTQSPSSLSASVGDRVTITCRASQDISSYLNWYQQKPGKAPKLLIYYTSRLHSGVPSRFSGSGSGTDFTFTISSLQPEDIATYYCQQGNTLPYTFGQGTKVEIKR
# notes: Non-switch control antibody
# B12: H5041-mFa31/L3023-ml0 (antibody, mouse IgG2a, V domains shown)
# VH: EVQLVESGGGLVKPGGSLRLSCAASGFTFNTYTMHWVRQAPGKGLEWVSSISSSSKHIYYADSVKGRFTISRDNAKNSLYLQMNSLRAEDTAVYYCARYGRPWELLWVLDYWGQGTLVTVSS
# VL: QSALTQPPSASGSPGQTVTISCTGTSTPSGAYDYVSWYQQHPGKAPKLMIYQVSKRPSGVPDRFSGSKSGNTASLTVSGLQAEDEADYFCSTTNSAWDPDFGGGTKLTVLQ
# notes: the text of the results names L3021
# Key:
# [1] = target: T2, mPD1-G1CH2 (mouse); assay: competition ELISA: mPD1-G1CH2 coated on the plate, mPDL1-G1dCH2His (55 nM) as the blocked ligand; 0, 1, 10 and 100 uM ATP (curves overlap)
# T2 construct: Whole entry named; also called Fc-fused murine PD1
# [2] = target: T2, mPD1-G1CH2; assay: as above; remark: listed apart in the source
# [3] = target: T3, hCD137.2.3-F.G1d (human); assay: ELISA; 500 uM kynurenine, Ab 10 ug/mL
# T3 construct: Portion of the human CD137 extracellular region linked to an antibody constant region
# [4] = target: T4, hCD137.2.4-F.G1d (human); assay: ELISA; 500 uM kynurenine, Ab 10 ug/mL
# T4 construct: Portion of the human CD137 extracellular region linked to an antibody constant region
# [5] = target: T5, hCD137.3.4-F.G1d (human); assay: ELISA; 500 uM kynurenine, Ab 10 ug/mL
# T5 construct: Portion of the human CD137 extracellular region linked to an antibody constant region
# [6] = target: T6, Biotinylated Fc-fused monkey CD137 (monkey, biotin on the AviTag); assay: ELISA; 500 uM kynurenine, Ab 10 ug/mL
# T6 construct: Monkey CD137 extracellular region, antibody constant region and Avitag; whole entry named; also called cyCD137-Fc-BAP
# [7] = target: T7, hCD137.1-F-G1d (human); assay: ELISA; 500 uM kynurenine, Ab 10 ug/mL
# T7 construct: Portion of the human CD137 extracellular region linked to an antibody constant region
# [8] = target: T8, hCD137.1.2-F.G1d (human); assay: ELISA; 500 uM kynurenine, Ab 10 ug/mL
# T8 construct: Portion of the human CD137 extracellular region linked to an antibody constant region
# [9] = target: T9, hCD137(FXa digested) (human, UniProt Q07011 24-186); assay: SPR 37C; ATP 10 uM
# T9 construct: also called human CD137 extracellular domain
# [10] = target: T9, hCD137(FXa digested); assay: SPR 37C; no ATP
# [11] = target: T9, hCD137(FXa digested); assay: SPR 37C; ATP 100 uM
# [12] = target: T9, hCD137(FXa digested); assay: SPR 37C; ATP 1 uM
# [13] = target: T1, hIL6R; assay: SPR 37C, mean; ATP 100 uM
# [14] = target: T1, hIL6R; assay: SPR 37C; AMP 100 uM
# [15] = target: T1, hIL6R; assay: SPR 37C; ADP 100 uM
# [16] = target: T1, hIL6R; assay: SPR 37C, mean; ATP 1 uM
# [17] = target: T1, hIL6R; assay: SPR 37C, mean; ATP 10 uM
# [18] = target: T1, hIL6R; assay: SPR 37C; AMP 10 uM
# [19] = target: T1, hIL6R; assay: SPR 37C; ADP 10 uM
# [20] = target: T1, hIL6R; assay: SPR 37C, mean; ATP 100 uM; ATP 100 uM; mean
# [21] = target: T1, hIL6R; assay: SPR 37C, mean; ATP 10 uM; ATP 10 uM; mean
# [22] = target: T1, hIL6R; assay: SPR 37C; ADP 10 uM; ADP 10 uM
# [23] = target: T1, hIL6R; assay: SPR 37C; ADP 100 uM; ADP 100 uM
# [24] = target: T1, hIL6R; assay: SPR 37C, mean; ATP 1 uM; ATP 1 uM; mean
# [25] = target: T1, hIL6R; assay: SPR 37C, mean; ATP 0 uM
# [26] = target: T2, mPD1-G1CH2; assay: competition ELISA: mPD1-G1CH2 coated on the plate, mPDL1-G1dCH2His (55 nM) as the blocked ligand; 1, 10 and 100 uM ATP (curves overlap)
binder,measurement,setting,value
B1,IC50 (read off the curve),[1],~0.6 µg/mL
same,IC50 (read off the curve),[2],~0.6 µg/mL
B2,absorbance ratio,[3],1.1
same,absorbance ratio,[4],1.3
same,absorbance ratio,[5],1.3
same,absorbance ratio,[6],1.1
B3,absorbance ratio,[5],1.2
same,absorbance ratio,[7],1.8
B4,absorbance ratio,[3],1.1
same,absorbance ratio,[8],1.2
same,absorbance ratio,[4],1.1
same,absorbance ratio,[5],1.1
same,absorbance ratio,[7],1.2
B5,Kd,[9],53.9 nM
same,Kd,[10],61 nM
same,Kd,[11],51.9 nM
same,Kd,[12],56.5 nM
B6,Kd,[9],54.4 nM
same,Kd,[10],61.7 nM
same,Kd,[11],53.6 nM
same,Kd,[12],56.2 nM
B7,Kd,[9],53.5 nM
same,Kd,[10],61.6 nM
same,Kd,[11],50.4 nM
same,Kd,[12],54.9 nM
B8,Kd,[13],8.31 nM
same,Kd,[14],118 nM
same,Kd,[15],10.1 nM
same,Kd,[16],1450 nM
same,Kd,[17],50.5 nM
same,Kd,[18],6640 nM
same,Kd,[19],58.1 nM
B9,Kd,[20],1160 nM
B10,Kd,[21],320 nM
same,Kd,[22],10300 nM
same,Kd,[14],1810 nM
same,Kd,[23],296 nM
same,Kd,[24],2380 nM
same,Kd,[20],48.3 nM
B11,Kd,[13],18 nM
same,Kd,[14],5.46 nM
same,Kd,[15],5.96 nM
same,Kd,[16],18.8 nM
same,Kd,[17],17.9 nM
same,Kd,[25],17 nM
same,Kd,[18],5.33 nM
same,Kd,[19],5.64 nM
B12,IC50 (read off the curve),[26],~0.8 µg/mL
